The results in this text go back to patent US20220387417A1, “Pharmaceutical Combination and Use Thereof” (CSTONE PHARMACEUTICALS (SUZHOU) CO., LTD., priority 2019, published 2022).

Data set [1] relates to subcutaneous MC38-hPD-L1 transplanted tumor. The data set is described as follows: Antibody 2E5 monotherapy or in combination with Lenvatinib mesylate on B-hPD-1 humanized mouse MC38-hPD-L1 colon cancer model: tumor volume, tumor weight, TGI, synergy score. The format is in vivo. Conditions: for Tumor volume (mm^3)/Mean ± SEM Day 17: 17th day after the start of treatment. The protocol: Synergy score was calculated using the following formula described in Clarke R. Issues in experimental design and endpoint analysis in the study of experimental cytotoxic agents in vivo in breast cancer and other models[J]. Breast Cancer Research & Treatment, 1997, 46(2-3):255-278, which is incorporated by reference in its entirety:
Synergy score=((A/C)×(B/C))/(AB/C);
where A is RTV value of drug A; B is RTV value of drug B; C is RTV value of vehicle control; AB is RTV value of combination treatment with A and B respectively. • Synergy score>1 represents synergistic; • Synergy score=1 represents additive; • Synergy score<1 represents antagonistic.
where V0 and Vt are the average tumor volume at the start of treatment (day 0) and the average tumor volume on a certain time point (day t).
Mouse colon cancer cells MC38 were purchased from Shun Ran (Shanghai) Biotechnology Co., Ltd., and the cells were cultured in a 37° C., 5% CO2 incubator supplemented with Dulbecco's Modified Eagle's medium containing 10% inactivated fetal bovine serum. MC38 cells were genetically modified to overexpress human PD-L1 and knock out murine PD-L1, the modified cells were named as MC38-hPD-L1 cells.
(§1) MC38-hPD-L1 tumor cells were resuspended in 1×PBS to a concentration of 5×10^5 cells per 0.1 mL. Each of the B-hPD-1 humanized mice was subcutaneously inoculated at the right lateral thorax region with 0.1 mL of the cell suspension. When the average tumor volume reached about 77 mm^3, the mice with moderate tumor volume were selected and randomly divided into 6 groups according to tumor volume, with 10 mice in each group, and the treatment was initiated on the same day.
Tumor volume was measured 2-3 times a week in two dimensions using a caliper, and the volume was expressed in mm^3 using the formula: V=0.5 a×b^2 where a and b were the long and short diameters of the tumor, respectively.
At the termination of the experiment, the animals were photographed to record the tumor bearing state after euthanasia, and the tumors of the mice were weighed and photographed.
TGITV(%)=[1−(Ti−T0)/(Vi−V0)]×100%.
Ti: tumor volume of the treatment group at day i following treatment; T0: tumor volume of the treatment group at day 0 following treatment; Vi: tumor volume of the control group at day i following treatment; V0: tumor volume of the control group at day 0 following treatment.
At the termination of the experiment, the animals were euthanized, the tumors were separated and weighed, and the difference of tumor weight between each group was calculated. Tumor weight inhibition (TGITW) was calculated by the formula:
TGITW (%)=(WC−WT)/[…]×100%; where We means tumor weight of control group, WT means tumor weight of treatment group.
(§2) The original data measured and observed must be recorded. The original data was analyzed and the results were expressed by mean and standard error (Mean±SEM). The data of body weight, tumor volume and tumor weight was statistically analyzed using independent-samples t-test. All data were analyzed using SPSS, P<0.05 is considered to be statistically significant.

Data set [2] is described as follows: Body weight of B-hPD-1 humanized mice bearing MC38-hPD-L1 tumors, Embodiment 2 (antibody 2E5 / Lenvatinib mesylate). In kind it is in vivo, Mus musculus. Conditions: for Weight (g)/Mean ± SEM Day 17: 17th day after the start of treatment; for Weight (g) Changes: Day 17 vs Day 0. The protocol:
as §1
Animals were weighed 2-3 times a week before tumor inoculation, during animal grouping and the treatment, and before the euthanasia.
as §2

Setting [3] is: Antibody 2E5 1 mg/kg i.p., Lenvatinib mesylate 1 mg/kg p.o. QD (G2, G4, G5).
Where [4] appears, read: Antibody 2E5 2 mg/kg i.p., Lenvatinib mesylate 1 mg/kg p.o. QD (G3, G6).
Where [5] appears, read: Antibody 2E5 1 mg/kg, Lenvatinib mesylate 1 mg/kg (G2, G4, G5).
Setting [6] is: Antibody 2E5 2 mg/kg, Lenvatinib mesylate 1 mg/kg (G3, G6).

B1: Antibody 2E5: anti-PD-1 antibody (antibody N), heavy chain variable SEQ ID NO: 30, light chain variable SEQ ID NO: 31, human IgG4 constant region (antibody, V domains shown)
VH: QVQLVQSGAEVKKPGSSVKVSCKASGFTFTTYYISWVRQAPGQGLEYLGYINMGSGGTNYNEKFKGRVTITADKSTSTAYMELSSLRSEDTAVYYCAIIGYFDYWGQGTMVTVSS
VL: DVVMTQSPLSLPVTLGQPASISCRSSQSLLDSDGGTYLYWFQQRPGQSPRRLIYLVSTLGSGVPDRFSGSGSGTDFTLKISRVEAEDVGVYYCMQLTHWPYTFGQGTKLEIK
modifications: human IgG4 constant region; heavy chain variable region; light chain variable region
With B1, the “Tumor volume (mm^3)/Mean ± SEM Day 17” value was found to be 1195 ± 252 mm^3 in data set [1] (setting [3]) and 1302 ± 202 mm^3 in data set [1] (setting [4]). The “Tumor volume (mm^3)/Mean ± SEM Day 0” value in data set [1] (setting [5]) and in data set [1] (setting [6]) was 77 ± 2 mm^3 in each case. In addition, the “Tumor weight (g) Mean ± SEM” value in data set [1] (Day 17, Antibody 2E5 1 mg/kg, Lenvatinib mesylate 1 mg/kg (G2, G4, G5)) is recorded as 0.909 ± 0.186 g; in data set [1] (Day 17, Antibody 2E5 2 mg/kg, Lenvatinib mesylate 1 mg/kg (G3, G6)), 1.080 ± 0.190 g. Further, the “Tumor growth inhibition (%)” value in data set [1] (by tumor volume, Day 17, vs hIgG4 control, Antibody 2E5 1 mg/kg, Lenvatinib mesylate 1 mg/kg (G2, G4, G5)) was determined as 56.4%; in data set [1] (by tumor volume, Day 17, vs hIgG4 control, Antibody 2E5 2 mg/kg, Lenvatinib mesylate 1 mg/kg (G3, G6)), 52.2%; in data set [1] (tumor weight analysis (Table 21), Day 17, vs IgG4 control, Antibody 2E5 1 mg/kg, Lenvatinib mesylate 1 mg/kg (G2, G4, G5)), 56.4%; in data set [1] (tumor weight analysis (Table 21), Day 17, vs IgG4 control, Antibody 2E5 2 mg/kg, Lenvatinib mesylate 1 mg/kg (G3, G6)), 48.2%. Also, the “Weight (g)/Mean ± SEM Day 17” value in data set [2] (setting [3]) is recorded as 28.6 ± 0.7 g; in data set [2] (setting [4]), 27.8 ± 0.7 g. For the same molecule, the “Weight (g)/Mean ± SEM Day 0” value in data set [2] (setting [3]) came to 24.9 ± 0.7 g; in data set [2] (setting [4]) it was 25.0 ± 0.6 g. The figures for the “Weight (g) Changes” value in data set [2] (setting [5]) and in data set [2] (setting [6]) were “+3.7 g” and “+2.8 g”, respectively.
